One data set is described as follows: in vivo. The following applies: female, CD-1 nude, mouse.
Data set [1] concerns large MDA-MB-231-RFP tumors. The data set is described as follows: Fluorescence imaging of dissected tumors (spatial distribution). It is filed as in vivo, CD-1 nude female mice. The following applies: 15 mg/kg i.v.
For the next data set, the target named is HSA (Homo sapiens, UniProt P02768). The data set is described as follows: Association constants of Bchl-Ds to HSA (spectroscopic titration). The following applies: for HSA association constant Ka(HSA): 1:1 non-covalent complex with HSA. It counts as binding. The source says:
Association constants of Bchl-Ds to HSA were deduced from spectroscopic measurements of the ratio between Bchl-Ds and HSA for different concentrations of HSA using both factor analysis, as previously described and by monitoring changes in the near infrared (NIR) absorption of the Bchl-Ds during titration with HSA. Briefly, all four Bchl-Ds present broad NIR absorption with reduced intensity in SA-free aqueous solutions. Upon addition of SA, they form 1:1 complexes with the added protein ((Bchl-D)/SA) with strong and narrow NIR absorption bands. The narrow-band absorption is proportional to the ((Bchl-D)/SA) concentration enabling calculation of the association constant Ka through the following equation: [drawing 1]
Where [SA]0 is the analytical concentration of the added SA and [(Bchl-D/SA)] is the concentration of the Bchl-D complex with SA calculated from the spectral changes.

The test system of data set [2] is MDA-MB-231-RFP tumors. To be noted: mouse, in vivo.
Method: (§1) Mammary fat pads (left, bottom nipple) of female mice were inoculated with harvested MDA-MB-231-RFP human breast cancer cells (4 × 10^6 in 100 μl saline). Tumors were classified as 'small' (≤100 mm^3) at one to two weeks from time of cell injection, or 'large' after three to four weeks (necrotic tumors, 250 to 500 mm^3). To avoid tumor burden, mice were sacrificed (cervical dislocation) when tumor size reached 10% of body weight or at 90 days post-implantation. External caliper measurements, length (L), width (W) and depth (D) were used to calculate in vivo tumor volume according to the formula: V = L/2 · W/2 · D/2 · π · 4/3 [46].
(§2) The in Vivo Optical Imaging System (IVIS®100/XFO-12, Xenogen Corp., Alameda, CA, USA) was used to acquire fluorescent images of the RFP-expressing tumors, as well as Bchl-D compounds associated with tissues and organs after their intravenous (i.v.) infusion to the tested animals. The field of view was 15 cm. RFP fluorescence, in units of photons/sec, was detected using 525/50 nm and 612/75 nm filter sets for excitation and emission, respectively, with one second integration time. NIR fluorescence of the different Bchl-Ds, in units of photons/sec, was detected using 680/30 nm and 847/75 nm filter sets for excitation and emission, respectively, at an integration time of five seconds. Background fluorescence for all quantitative analyses was calculated by recording the average fluorescence (photons/sec)/cm^2 from three animals in three different areas around and within the tumor of untreated animals provided with a similar diet for three days before measurements.
(§3) Drug accumulation was determined following i.v. administration of molar equivalents of the Bchl-D moiety to the tail vein of mice fed with a chlorophyll-free, purified diet (Harlan Teklad, Harlan Laboratories, Indianapolis, IN, USA) for three days before administration (in order to reduce skin and food autofluorescence). Before imaging, mice were anesthetized by intraperitoneum injection of a 30 μl mixture of 85:15 ketamine:xylazine.
(§4) Xenogen Living Image Software (Xenogen Corp., Alameda, CA, USA) was used for sequential fluorescent image acquisition [see Additional file 1] and superimposition of photographic images of mice and color-coded fluorescent images.
A short description of data set [3]: Biodistribution studies (tissue extraction, fluorescence). It is filed as in vivo, CD-1 nude female mice. On the procedure:
Anaesthetized mice were i.v. injected with 15 mg/kg STL-6014 (n = 27) or 9 mg/kg STL-7012 (n = 15). At each indicated time point, three animals were sacrificed and blood, kidney, liver and tumor tissues were collected into pre-weighed vials and frozen at -20°C. Tissue samples were homogenized in methanol (100 mg tissue/ml) and extracted the next morning by centrifugation (13,000 × g five minutes) at room temperature. Supernatants were diluted in methanol by a factor of two and drug concentration was determined by fluorescence measurements (Varian - Cary Eclipse spectrofluorimeter, Palo Alto, California, USA) at 750 nm (peak values). Drug concentrations were interpolated from a fluorescence calibration curve, based on predetermined drug concentrations using absorption spectroscopy.

Data set [4] has as its system MDA-MB-231-RFP tumors. In words: In vivo competition between STL-6014 and free c(RGDfK). More on the design: species or system CD-1 nude female mice. The method, then: STL-6014 (140 nmol, 7.5 mg/kg) was i.v. injected to the tail vein of mice one hour after being pre-injected with an excess (8.5 μmol) of c(RGDfK) free peptide. Whole-body fluorescence images were recorded up to 24 hours post-STL-6014 injection (IVIS®, Xenogen Corp., Alameda, CA, USA) with the respective filter settings, described above.

In data set [5] the test system is MDA-MB-231-RFP tumors. In words: Whole-body fluorescence imaging of drug accumulation and clearance in tumors. The following applies: large necrotic tumors, 9 mg/kg i.v., from one hour post injection.
Method: as §1, §2, §3, §4
For another data set, the system named is primary xenografts. The following applies: circulates as non-covalent complex with SA; cited from earlier work.
On the set-up of data set [6]: method as in PMID 11216533. The following applies: cited from earlier work.
The next data set has as its system αVβ3 integrin receptors. More on the design: method as in PMID 16309948. The following applies: cited from earlier work.
[7] abbreviates: 48 to 72 hours post-administration.

Structures can show the parent of a compound that is named as a salt. Some results are limits rather than exact numbers.

HSA, sequence (P02768 25-609): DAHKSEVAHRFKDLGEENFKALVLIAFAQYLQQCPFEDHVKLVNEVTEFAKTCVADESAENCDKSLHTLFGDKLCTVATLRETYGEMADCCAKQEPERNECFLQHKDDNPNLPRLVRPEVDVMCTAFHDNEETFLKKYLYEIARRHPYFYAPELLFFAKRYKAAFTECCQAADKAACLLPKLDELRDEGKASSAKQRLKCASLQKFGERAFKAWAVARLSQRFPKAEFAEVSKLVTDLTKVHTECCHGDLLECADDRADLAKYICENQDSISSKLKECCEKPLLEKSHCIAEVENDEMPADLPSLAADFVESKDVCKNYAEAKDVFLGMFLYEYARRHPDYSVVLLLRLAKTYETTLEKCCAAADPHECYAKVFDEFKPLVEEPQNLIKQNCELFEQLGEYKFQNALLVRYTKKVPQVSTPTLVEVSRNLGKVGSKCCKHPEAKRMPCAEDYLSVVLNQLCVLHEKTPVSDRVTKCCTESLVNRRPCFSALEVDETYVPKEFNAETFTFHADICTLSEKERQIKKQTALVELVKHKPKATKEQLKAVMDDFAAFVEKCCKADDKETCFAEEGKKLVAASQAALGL

Take `CC[C@H]1c2cc3[nH]c(c(CC(=O)OC)c4nc(cc5[nH]c(cc(n2)[C@@H]1C)c(C(C)=O)c5C)[C@@H](C)[C@@H]4CCC(=O)NCCCC[C@@H]1NC(=O)[C@@H](Cc2ccccc2)NC(=O)[C@H](CC(=O)O)NC(=O)CNC(=O)[C@H](CCCNC(=N)N)NC1=O)c(C(=O)NCCS(=O)(=O)O)c3C` [STL-6014, 3^1-oxo-15-methoxycarbonylmethyl-Rhodobacteriochlorin 13^1-(2-sulfoethyl)amide-17^3-c(RGDfK)amide potassium salt]: the Tmax (as a rule, the time at which the peak concentration occurs) in the data set “in vivo” was 48 to 72 h. Also, the half-life (usually the time needed for the level to fall by half in the phase considered) in the data set “in vivo” (iv, 15 mg/kg, t1/2 of tumor fluorescence, mono-exponential decay) is 14 ± 1.5 h. In addition, in [1] (beyond 16 hours post-injection), the “location of fluorescence signal in dissected tumor” value was “only observed in the necrotic domain”. In addition, the “location of fluorescence signal in dissected tumor” value in data set [1] (four hours post injection) is “within the viable tumor region alone”. On HSA (as restated in discussion, read-out: Ka, association with SA (converted)), the Kd was 8.33 µM. Also, in the data set on MDA-MB-231-RFP tumors [2], the “time to full clearance from tumor” value is recorded as “less than two” and the “tumor half lifetime (T1/2)” value is “in the range of days”. Further, in the data set with MDA-MB-231-RFP tumors [2] (iv, 15 mg/kg), the “clearance from small tumors relative to large tumors (faster)” value is reported as “more than 10 fold”; the “persistence of tumor fluorescence” value is “still detectable at nine days”; the “t^1_1/2 of tumor fluorescence, bi-exponential decay” value was determined as 12.0 ± 3.5 h; the “t^2_1/2 of tumor fluorescence, bi-exponential decay” value turned out to be 210.0 ± 86.0 h. Moreover, in the data set with MDA-MB-231-RFP tumors [2] (iv, 15 mg/kg), the “time for tumor fluorescence to return to background values” is at most 48 h and the “time of peak tumor fluorescence after administration” value is “six to eight”. In [3] (15 mg/kg i.v.), the “t1/2 of hepatic clearance” value is recorded as “about four” and the “time to clear to nearly background levels in normal tissues” value is reported as “less than 72 hours”. Further, in [3] (setting [7]), the “tumor level relative to blood” value is listed as “about two orders of magnitude”; the “tumor level relative to kidney, liver, intestines, lung and skin” value is “about two”. The “tumor level relative to spleen, heart, brain, fat and muscle” value in data set [3] (48 to 72 hours post-administration, data not shown) is “about 10 fold”. The “time of peak levels in normal tissues post-injection” value in [3] (blood, liver, kidney, 15 mg/kg i.v.) is given as “less than five”. For the same compound, in data set [3] (large tumors, 15 mg/kg i.v.), the “time of peak concentration in tumors post-injection” value was “eight”. In data set [3] (large tumors, 15 mg/kg i.v., eight hours post-injection), the “peak concentration in tumors” value came out at 11 μg drug/gr tumor tissue. The “peak tumor level as share of the initial drug dose” value in data set [3] (large tumors, eight hours post-injection) is “about 3.0%”. The “STL-6014 uptake and accumulation after pre-administration of free c(RGDfK)” value in the data set on MDA-MB-231-RFP tumors [4] (large tumors, data not shown) is given as “not affected”. Besides, the “STL-6014 tumor fluorescence after pre-injection of free c(RGDfK)” value in the data set on MDA-MB-231-RFP tumors [4] (small tumors, 7.5 mg/kg (140 nmol) i.v. one hour after 61-fold molar excess c(RGDfK)) was “almost no STL-6014 fluorescence was detected in the tumor”.
On to `CC[C@H]1c2cc3[nH]c(c(CC(=O)OC)c4nc(cc5[nH]c(cc(n2)[C@@H]1C)c(C(C)=O)c5C)[C@@H](C)[C@@H]4CCC(=O)O)c(C(=O)NCCS(=O)(=O)[O-])c3C.[K+]` [STL-7012, 3^1-oxo-15-methoxycarbonylmethyl-Rhodobacteriochlorin 13^1-(2-sulfoethyl)amide dipotassium salt], for which the “tumor fluorescence in whole-body imaging” value with MDA-MB-231-RFP tumors [5] was “No specific tumor fluorescence”. For the same compound, the “HSA association constant Ka(HSA)” value at HSA came to 0.44 ± 0.09 µM⁻¹. In [3] (9 mg/kg i.v., any time longer than one hour post administration), the “accumulation in tumor, fluorescence of tissue extracts” value is “no STL-7012 accumulation in the tumor”.
In the case of `CC[C@H]1c2cc3[n-]c(c(CC(=O)OC)c4nc(cc5[n-]c(cc(n2)[C@@H]1C)c(C(C)=O)c5C)[C@@H](C)[C@@H]4CCC(=O)[O-])c(C(=O)NCCS(=O)(=O)[O-])c3C.[H+].[H+].[Pd+2]` [WST11], in the data set on primary xenografts, the “accumulation in the tumor tissue” value is “no accumulation in the tumor tissue”. Moreover, the “HSA association constant Ka(HSA)” value at HSA worked out at 0.54 ± 0.07 µM⁻¹.
Cyclo-Arg-Gly-Asp-D-Phe-Lys [c(RGDfK)]: in [6], the “half life in a similar animal model” value was “minutes”. For the same compound, in the data set with αVβ3 integrin receptors, the “Ka, association of c(RGDfK) moiety with αVβ3 integrin receptors” value is “about 10^9 M^-1”.

These data come from paper PMC2917020, “Novel design principles enable specific targeting of imaging and therapeutic agents to necrotic domains in breast tumors” (Breast Cancer Research : BCR, 2010).
